In paper PMC9697831 (2022):
No end group written: not given here. enterokinase site = enterokinase site: N-terminal 6xHis-tag carrying an enterokinase cleavage site; factor Xa site = factor Xa site: N-terminal 6xHis-tag carrying a factor Xa cleavage site

Target: Kv1.3 (Homo sapiens, UniProt P22001)
Assay: whole-cell patch clamp

Kv1.3, sequence (P22001 whole entry): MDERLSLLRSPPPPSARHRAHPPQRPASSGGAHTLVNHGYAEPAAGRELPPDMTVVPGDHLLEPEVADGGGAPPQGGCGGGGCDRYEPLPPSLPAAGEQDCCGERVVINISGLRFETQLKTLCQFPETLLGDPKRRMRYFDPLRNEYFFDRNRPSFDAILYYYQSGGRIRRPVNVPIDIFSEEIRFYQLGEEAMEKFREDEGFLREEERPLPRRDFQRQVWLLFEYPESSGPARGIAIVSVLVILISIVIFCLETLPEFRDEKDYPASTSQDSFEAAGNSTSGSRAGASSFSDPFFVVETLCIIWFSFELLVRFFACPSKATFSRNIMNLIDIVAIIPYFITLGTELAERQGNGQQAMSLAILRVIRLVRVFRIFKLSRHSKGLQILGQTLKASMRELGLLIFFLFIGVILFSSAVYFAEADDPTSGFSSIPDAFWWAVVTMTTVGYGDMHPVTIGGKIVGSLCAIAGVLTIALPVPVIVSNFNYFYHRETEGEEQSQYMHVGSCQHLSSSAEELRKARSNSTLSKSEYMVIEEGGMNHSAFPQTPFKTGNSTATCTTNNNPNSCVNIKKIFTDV

Binder | Kd [nM]
QKECTGPQHCTNFCRKNKCTHGKCMNRKCKCFNCK [Anuroctoxin (Untag-AnTx)] | 0.72
{6xHis tag-enterokinase site}-WCSTCLDLACGASRECYDPCFKAFGRAHGKCMNNKCRCYT (disulfide (positions not given here); ends not checked) [Ts6 (Tag-Ts6)] | 887
{6xHis tag-factor Xa site}-AAAISCVGSPECPPKCRAQGCKNGKCMNRKCECYYC (disulfide (positions not given here); ends not checked) [Vm24 (Tag-Vm24)] | 0.0044
WCSTCLDLACGASRECYDPCFKAFGRAHGKCMNNKCRCYT [Ts6 (Untag-Ts6)] | 29.1
QKECTGPQHCTNFCRKNKCTHGKCMNRKCKCFNCK (N-terminal 6xHis-tag with enterokinase site) [Anuroctoxin (Tag-AnTx)] | 1.29
